Experimental findings from the DeepSol protein solubility set are described below.

A short description of this series: soluble on expression in E. coli; label from the status in PepcDB or PDB records.
Regarding “MATALYTANDFILISLPQNAQPVTAPGSKTDSWFNETLIGGRAFVSDFKIPEFKIGSLDTLIVESEELSKVDNQIGASIGKIIEILQGLNETSTNAYRTLPINNMPVPEYLENFQWQTRKFKLDKSIKDLITLISNESSQLDADVRATYANYNSAKTNLAAAERKKTGDLSVRSLHDIVKPEDFVLNSEHLTTVLVAVPKSLKSDFEKSYETLSKNVVPASASVIAEDAEYVLFNVHLFKKNVQEFTTAAREKKFIPREFNYSEELIDQLKKEHDSAASLEQSLRVQLVRLAKTAYVDVFINWFHIKALRVYVESVLRYGLPPHFNIKIIAVPPKNLSKCKSELIDAFGFLGGNAFMKDKKGKINKQDTSLHQYASLVDTEYEPFVMYIINL”, the “soluble on expression in E. coli” value was “soluble”.

“MGSDKIHHHHHHMEKGEPIVVVKEISKSYGKVEALKEVSFAVEQGEVFGLIGPDGAGKSTLFRILTTLLLADKGTATVNGLDVVTDYKQIRTKVGYMPGRFSLYQDLSVEENLEFFATVFHTLIQENYDLIKDIYQQIEPFKKRRAGALSGGMKQKLALSCSLIHKPDILFLDEPTTGVDPVSRKEFWQMLRNLRKQGITIIVSTPIMDEARQCDRIAFINHGQVHGIDTPERILQKFASILCPPPLEREEAQQMAAPVIEVEQLTKSFGHFTAVDHISFQVQRGEIFGFLGANGAGKTTAMRMLCGLSRPTSGVGKVAGYDIFREAEQVKRHIGYMSQKFSLYEDLKVWENIRLFAGIYGMKEMEIEEKTDELLERLGFADERDTLVKNLPLGWKQKLAFSVSIFHEPKIVFLDEPTGGVDPATRRQFWELIYQAADRGITVFVTTHYMDEAEYCNRISIMVDGQIKALDTPARLKEQFGVETMDDVFQQLARHAVRKAD”: the “soluble on expression in E. coli” value is “not soluble”.

Turning to “MAHHHHHHMSVCARALWQRSRLLCRCLIMCPTPLSTARWRAGHGWLSRKRGDAEAPPSRERRRHPHANTRHSHAHMMALTLDPRWNAMRRGIAGIGVCAVDGRGGAAAPGSCRLSLCSCLSPASSGGCGGADSALSEGGHCRECVCGMRGRLPSPKKPWNSLAGVLVGVRVTHAASVLEDRPVALGRLVSRLSEAAYKAEMLRTGKRDRDGEDRRGDAAQLLVVDAGTRVTVRTEGDPASGAAVAPSAMHMKGTIAKVNGNATYIILMEKGEVELSVASERIVALQPRKKLFQSARLVALV”, the “soluble on expression in E. coli” value is recorded as “soluble”.

Consider “MSYEMNSLFSSNQQPLGGGPPPQQQSQQQQQPPQSLWSLQQFSQMGAPDNFGNHAVPFMPTLGMLNQYQNPHPLQMVPPQPLVTPSQVLPPSMAEQQRADTIHGFGVLTWLSAKAGLITCKDKMIISFQLKDFCDQMLNDLTSVLRVGFTLSFHAALNETSEYTATIVSPIYGPDADVLFANSQEVDLEAANPTPPNSKDAYSPALEQKAIPALLAIFQRHGLQQIQLSRSFSLHSQMSNCGDDELFRYVGTSSLKRRQFVERRTHLFRLQNDDSIILQYPAVYQAVYQLASYLLRRGGATSIQSLFDYYGSPDIMPEVRSHTGEGRQDFLNLLTAHNWVFALFPNRTYVSVRRNLPNYDYVGFIKQHFQEMDITRSQQMAYGQPPRGIQRTMSAQMGSSFATGRPQNLLMQHQHAMTPAATRSGSLWDSQSSLSQSGNSGDQWSPLFSPSTWSNNTNANPRLTSLTPLSSMNETLLSGVNYNSLLAMPPSAKNERSIGVQADDFLDRMSYNPIGRTGCTCQCQCGRGGAAIIGNTRGSSSRASGGSASPPSADGASQIDRFSPSNHAGSIGDRTLTAAALGVGLVDQQPAAPNHDGSANQPQRYYDPFGTADLLNGTRLNSLRIGN”, for which the “soluble on expression in E. coli” value was “not soluble”.

“MFIGYKSSKSKKILIMNSKGGAGKSSLTMAMARLFSSKNIKTELIDLDPQNTSYFWGGNNKEIRTQTFLTSSRVPFSLALKLELDTELTIIDTPSNFNKFELDKYLSLADKIILPLQASPIDLHSILGFIKNLIASPVYKKRNIPVCFVITRYKGRVGDLELMHRVLNKLKYPIIGVMSESDAYQSLFIDEDVKVFQYLDKNLWVEIERWINI”: the “soluble on expression in E. coli” value is recorded as “not soluble”.

On to “MLLREINRYCKEKATGKRIYAVPKLWIPGFFKKFDEKSGRCFVDPYELGAEITDWILNQSREWDYSQPLSFLKGEKTPDWIKRSVVYGSLPRTTAAYNHKGSGYYEENDVLGFREAGTFFKMMLLLPFVKSLGADAIYLLPVSRMSDLFKKGDAPSPYSVKNPMELDERYHDPLLEPFKVDEEFKAFVEACHILGIRVILDFIPRTAARDSDLIREHPDWFYWIKVEELADYTPPRAEELPFKVPDEDELEIIYNKENVKRHLKKFTLPPNLIDPQKWEKIKREEGNILELIVKEFGIITPPGFSDLINDPQPTWDDVTFLRLYLDHPEASKRFLDPNQPPYVLYDVIKASKFPGKEPNRELWEYLAGVIPHYQKKYGIDGARLDMGHALPKELLDLIIKNVKEYDPAFVMIAEELDMEKDKASKEAGYDVILGSSWYFAGRVEEIGKLPDIAEELVLPFLASVETPDTPRIATRKYASKMKKLAPFVTYFLPNSIPYVNTGQEIGEKQPMNLGLDTDPNLRKVLSPTDEFFGKLAFFDHYVLHWDSPDRGVLNFIKKLIKVRHEFLDFVLNGKFENLTTKDLVMYSYEKNGQKIVIAANVGKEPKEITGGRVWNGKWSDEEKVVLKPLEFALVVQE”, for which the “soluble on expression in E. coli” value was “soluble”.

For “MANYPKELPAQTQSRQPGIESEMNPSPVYEYEDYKGADKLKGKVALITGGDSGIGRAVSVAYAKEGADIAIVYKDEHEDAEETKKRVEQEGVKCLLIAGDVGEEEFCNEAVEKTVKELGGLDILVNNAGEQHPKESIKDITSEQLHRTFKTNFYSQFYLTKKAIDYLKPGSAIINTTSINPYVGNPTLIDYTATKGAINAFTRTMAQALVKDGIRVNAVAPGPIWTPLIPATFPEETVAQFGQDTPMGRPGQPVEHVGCYVLLASD”, the “soluble on expression in E. coli” value is recorded as “not soluble”.

As for “MGSDKIHHHHHHMSEQKEDLFKPVGEAAAEVEDESIAEQNKANDGVKLTGAQDAMGHPVQEIESLCMNCGKNGTTRLLLTSIPYFREIIIMSFDCPHCGFKNCEIQPASQIQEKGSRYVLKVECREDFNRQVIKSETATCKFVELDIEIPAKRGQLTTVEGLLSEMIDDLSQDQEMRKSIDEALYKKIDDFIQKVKSYINCEPNTIPITFILDDPAGNSWIEYKPGEPQHKWSHTQYVRTDEQNVQVGIITRDQLEQRRQEQLKQLANRERNPSESVKVGSANPQFLSDATDIENFNNEVQTFRASCPSCTQECETHMKPVNIPHFKEVIIMSTVCDHCGYKSNEVKTGGAIPDKGRRITLYCDDAADLSRDILKSETCSMVIPELHLDIQEGTLGGRFTTLEGLLRQVYEELESRIFTQTSDSMDEATKARWVEFFAKLKEAIAGKVKFTVIMEDPLAGSYIQNVYAPDPDPNMTIEDYERTKEQNEDLGLSDIKVE”, the “soluble on expression in E. coli” value is “not soluble”.

As to “MVVCSVQRLLLNFDFSENRSRSYHFTMDGKQIATTIPPVFLFNVLESVSGTDDRVLEHHHHHH”, the “soluble on expression in E. coli” value is given as “not soluble”.

Take “KDADVDITLIDRTNHHLFQPLLYQVATGILSSGEIAPQTRQVLAQQNNVHVLKAEVTDIDTESKTVVADLDDYSKTIEYDSLIVAAGAGQSYFGNDHFAEFAPGMKTIDDALELRARIIGAFERAEMCEDPKERERLLTFVIVGAGPTGVELAGQLAEMAHRTLSGEYTQFTPSNAKIILLDGAPQVLPPFGKR”: the “soluble on expression in E. coli” value is reported as “not soluble”.

In the case of “MQGLYIYGEVGRGKTMLMDLFFSCLPQKRKKRAHFNDFMADVHERINIYRQASKDGKTGQKTPILAVVEDLAQEAQVLCFDEFSVTDIADAMVLGRLISALFDKGIFFVATSNVAPDNLYYNGLEHHHHHH”, the “soluble on expression in E. coli” value is listed as “not soluble”.

For the sequence “MGSDKIHHHHHHMRILALVPGGIGDQILFFPTVADLKKYYPQAQIDVVVEPRAVGAYRVCAEVDQVFPFDFKDRNSLADWGNLLGSIREREYEAVLSLGQRSLVGLFLWLTGIPKRVGYAGRGKIFLTDAVPLNREQYAGALYHDLLQGFGINTPCPNPKLTLARQDLDWATAEQQRLGLAGQGYLVLHGGSSTLAKLKGLQKVYPVEKWAIVLRSIREQRPSLPFVVVQGPDDAEFVAELRKSNLDFQVVQPPDIGKLAAIIAGADLMLCTDSAPMHLAVASGTRTIALFGPFEPAKLLPADDRFIGIKAQGVDVATIPPQEIIDRLFGR”, the “soluble on expression in E. coli” value is “not soluble”.

Consider “QADTAMIVQISADRKEINLVSIPRDSLVDVPQCETSKGTIPAQYNVMFNSIFAGAYKTGGDLSSAASCTLNAVNSLTGLNIQNFIVVDFAGLVKMIDSVGGVDLCIPQNVNDPYTGLNLDKGMHHLDGVAATQYARIRHGIGDGSDTSRTTRQQYLIKQLMSEALS”, for which the “soluble on expression in E. coli” value is reported as “not soluble”.

For the sequence “MGHHHHHHSHMTDRQDIQKSMAAFKNLSAQCQEVRKRKELELQILTEAIRNWEGDDIKTLGNVTYMSQVLIQCAGSEEKNERYLLLFPNVLLMLSASPRMSGFIYQGKLPTTGMTITKLEDSENHRNAFEISGSMIERILVSCNNQQDLQEWVEHLQKQTKVTSVG”, the “soluble on expression in E. coli” value was “soluble”.

With “MLIVGEDFGMRVSVLASSSSGNATYIETPGHKVLVDAGLSGKKIETLMQSIGRDLTDVDSVFITHEHSDHVRGVGVLARRYPKLSVYANAKTFAALPKSVGKIPEDQLRLFDMGATLTLGDLDVESFGVSHDAAAPQFYQFHHDGKTFTILTDTGYVSDRVAGTIRDADAYVMECNHDLEMLRTGPYPWPLKQRILGDQGHLSNEDGADALMDVIGLRTKRIYLGHLSPHNNNKPLAHLTVASLLAQQGLAVDHDFRIYDTDPAVADPLFVVLEHHHHHH”, the “soluble on expression in E. coli” value is recorded as “not soluble”.

Consider “MPEFDFSPITEGIYNVIETEEKVLTSLPEETITQKRNRQNRTIKQILGHLIDSTSNNHQRMIRLQYSKDLLFFPDYRQDNDLWIALQDYQHTDWNNLIQLWKFFNLHIIQVIKSVDQTKLDSYWCDFEGTKVTLKEMIEGYLDHLNLHIQEIHELI”, for which the “soluble on expression in E. coli” value is reported as “not soluble”.

“GGSGSDIEAYFERIGYKNSRNKLDLETLTDILEHQIRAVPFENLNMHCGQAMELGLEAIFDHIVRRNRGGWCLQVNQLLYWALTTIGFQTTMLGGYFYIPPVNKYSTGMVHLLLQVTIDGRNYIVDAGSGSSSQMWQPLELISGKDQPQVPCIFCLTEERGIWYLDQIRREQYITNKEFLNSHLLPKKKHQKIYLFTLEPRTIEDFESMNTYLQTSPTSSFITTSFCSLQTPEGVYCLVGFILTYRKFNYKDNTDLVEFKTLTEEEVEEVLKNIFKISLGRNLVPKPGDGSLTI”: the “soluble on expression in E. coli” value is given as “soluble”.

“MSLRSLTHIAKIELPPVRRVTYVKHYSIQPANLEFNAEGTPVSRDFDDVYFSNDNGLEETRYVFLGGNQLEARFPEHPHPLFVVAESGFGTGLNFLTLWQAFDQFREAHPQAQLQRLHFISFEKFPLTRADLALAHQHWPELAPWAEQLQAQWPMPLPGCHRLLLDEGRVTLDLWFGDINELISQLDDSLNQKVDAWFLDGFAPAKNPDMWTQNLFNAMARLARPGGTLATFTSAGFVRRGLQEAGFTMQKRKGFGRKREMLCGVMEQTLPLPCSTPWFNRTGSSKREVAIIGGGIASALLSLALLRRGWQVTLYCADEAPALGASGNRQGALYPLLSKHDEALNRFFSNGFTFARRLYDSLPVKFDHDWCGVTQLGWDEKSQHKIAQMLSMDLPEELAVAVEANAVEQITGVTTNCSGITYPQGGWLCPAELTRNVLELAQQQGLQIYYQYQLQDLSRKDDCWLLTFAGDQQATHSVVVLANGHQISRFSQTSSLPVYSVAGQVSHIPTTPELAKLKQVLCYDGYLTPQNPANQHHCIGASYHRGSEETAYSEDNQQQNRQRLIDCFPHAQWAKTVDVSKKEARCGVRCATRDHLPMVGNVPDYEATLVEYASLAEQKDKAVSAPVFDDLFMFAALGSRGLCSAPLCAEILAAQMSDEPIPMDASTLAALNPNRLWVRKLLKGKAVKAGEGHHHHHH”: the “soluble on expression in E. coli” value was “soluble”.
